This note sets out measurements from patent US20250066499A1 (SUNSHINE GUOJIAN PHARMACEUTICAL SHANGHAI, published 2025).

For experiment [1], the target named is T1, CD73 protein on the surface of tumor cells (human, UniProt P21589 27-549).
T1 sequence (looked up): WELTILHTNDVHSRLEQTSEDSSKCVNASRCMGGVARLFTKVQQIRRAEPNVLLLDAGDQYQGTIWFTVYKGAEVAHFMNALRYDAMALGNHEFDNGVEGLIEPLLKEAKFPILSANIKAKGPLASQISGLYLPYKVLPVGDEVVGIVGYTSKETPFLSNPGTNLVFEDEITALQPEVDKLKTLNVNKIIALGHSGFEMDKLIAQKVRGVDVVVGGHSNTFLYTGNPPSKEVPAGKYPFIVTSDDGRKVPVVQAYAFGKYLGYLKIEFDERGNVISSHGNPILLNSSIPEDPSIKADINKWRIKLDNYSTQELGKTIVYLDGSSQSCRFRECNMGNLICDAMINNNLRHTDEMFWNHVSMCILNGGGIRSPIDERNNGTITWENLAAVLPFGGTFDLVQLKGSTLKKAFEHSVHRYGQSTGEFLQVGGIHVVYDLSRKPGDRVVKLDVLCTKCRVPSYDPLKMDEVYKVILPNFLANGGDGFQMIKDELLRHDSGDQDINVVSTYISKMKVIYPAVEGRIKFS
Put plainly: cell-based or functional assay.

Experiment [2] concerns the target T2, human CD73-His protein (human, UniProt P21589 27-549).
T2 construct: Expressed in HEK-293F with a signal peptide that is not specified; In the ELISAs it was biotinylated with EZ-Link NHS-Biotin (CD73-biotin) and captured on streptavidin; in SPR and the enzyme assay it was used as CD73-His; also called CD73-his antigen; CD73-biotin
T2 sequence: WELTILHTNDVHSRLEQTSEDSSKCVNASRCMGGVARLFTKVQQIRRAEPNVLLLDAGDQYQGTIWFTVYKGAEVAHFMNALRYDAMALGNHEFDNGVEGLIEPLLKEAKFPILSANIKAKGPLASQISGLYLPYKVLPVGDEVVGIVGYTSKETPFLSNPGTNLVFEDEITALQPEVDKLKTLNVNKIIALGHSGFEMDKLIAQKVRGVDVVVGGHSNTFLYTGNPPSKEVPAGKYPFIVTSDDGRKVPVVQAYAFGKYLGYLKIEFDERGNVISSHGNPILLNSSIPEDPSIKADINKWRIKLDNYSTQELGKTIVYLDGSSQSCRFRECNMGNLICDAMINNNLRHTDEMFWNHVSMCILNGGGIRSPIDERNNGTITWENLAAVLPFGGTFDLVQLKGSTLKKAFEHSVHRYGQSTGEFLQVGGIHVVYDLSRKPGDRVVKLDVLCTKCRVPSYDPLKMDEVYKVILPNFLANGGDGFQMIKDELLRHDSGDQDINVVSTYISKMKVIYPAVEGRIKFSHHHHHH
Put plainly: ELISA, biotinylated CD73-His on streptavidin plate. The method, then: (§1) The ELISA plates were coated with SA protein diluted to 1.5 μg/mL in coating buffer (50 mM carbonate coating buffer, pH 9.6) and incubated overnight at 4° C. The supernatant was discarded, and the plates were washed three times with PBST. Then, 5% skimmed milk powder prepared with PBS was added for blocking and the plates were incubated for 2 h at 37° C. After washing the plates once with PBST, CD73-biotin protein (prepared by biotinylating CD73-His protein according to the EZ-Link NHS-Biotin Reagent instructions) was diluted to 0.5 μg/mL and added at 100 μL/well for incubation at room temperature for 1 h. The plates were washed three times with PBST, and the prepared murine-derived monoclonal antibodies against human CD73 were serially diluted with 1% BSA buffer prepared with PBST and added to the ELISA plates at 100 μl/well. The plates were incubated at 37° C. for 1 h. After washing the plates three times with PBST, HRP-labeled goat anti-mouse IgG secondary antibody was added and the plates were incubated for 30 min at 37° C. After washing the plates three times with PBST, the residual droplets were patted dry on absorbent paper as much as possible. Then, 100 μl of TMB color developing solution was added to each well, and the plates were incubated in the dark at room temperature for 5 min for color development. Subsequently, 50 μl of 2M H₂SO₄ stop solution was added to each well to terminate the substrate reaction. The OD values were read at 450 nm using a multimode microplate reader to analyze the binding ability of the tested antibodies to the target antigen human CD73-His.

Experiment [3] addresses T2, human CD73-His protein. Put plainly: ELISA, biotinylated CD73-His on streptavidin plate. How it is done:
as §1
The binding affinity of various humanized antibodies to human CD73-his protein was measured with reference to Example 3.
This is another data set of the same source. For orientation: An ELISA detects its analyte on a solid surface through an enzyme-linked reagent.

The target of experiment [4] is T2, human CD73-His protein. The experiment can be described thus: cell-based or functional assay.

Where two headings read alike, the source gives them in different places.

B1: 56B10 (antibody, V domains shown)
VH: QVQLQQSGPELVKPGASVRISCKTSGYTFTRYYIYWVKQRPGQGLEWIGWIYPGNFNTKYNEKFKGKATLTADTSSSTAYMQLSSLTSEDSAVYFCARDVYDYAGFAYWGQGTLVTVSA
VL: DIVMTQSHRFLSTSVGDRVSITCKASQGVATAVAWYQQKPGQSPKLLIYWASTRHTGVPDRFTGSGSGTDFTLTISNVQSEDLADYFCQQYSSYPWTFGGGTKLEIK
notes: Murine hybridoma antibody; also called murine-derived antibody 56B10
As usually defined, the EC50 is the midpoint of the concentration-response curve. Read a low EC50 as an effect from little substance. With B1, the “IC50 (ng/mL), inhibition of CD73 enzyme activity on H1975 cells (AMP/ATP, Cell Titer-Glo)” value in experiment [1] is 20.7 ng/mL. The molecule also gave an EC50 in experiment [2] of 0.0269 µg/mL.

B2: 56B10-ch (antibody, human IgG4 S228P, kappa, V domains shown)
VH: QVQLQQSGPELVKPGASVRISCKTSGYTFTRYYIYWVKQRPGQGLEWIGWIYPGNFNTKYNEKFKGKATLTADTSSSTAYMQLSSLTSEDSAVYFCARDVYDYAGFAYWGQGTLVTVSA
VL: DIVMTQSHRFLSTSVGDRVSITCKASQGVATAVAWYQQKPGQSPKLLIYWASTRHTGVPDRFTGSGSGTDFTLTISNVQSEDLADYFCQQYSSYPWTFGGGTKLEIKR
notes: Chimeric: murine variable regions spliced with human IgG4 (S228P) and human kappa constant regions; also called chimeric antibody 56B10-ch
For B2, the half-maximal effective concentration (EC50) in experiment [2] is 0.09 nM; in experiment [3], 0.07 nM.

B3: 48A11 (antibody, V domains shown)
VH: QVQLQQPGAELVKPGASVKLSCKASGYTFTSYWMHWVKQRPGQGLEWIGEINPSIGRTNYNEKFKSKATLTVDKSSSTAFMQLSSLTSEDSAVYYCARRVYGTMDYWGQGTSVTVSS
VL: DIKMTQSPSSMYASLGERVTITCKASQDINSYLSWFQQKPGKSPKTLIYRANIWVDGVPSRFSGSGSGQDYSLTISSLEYEDMGIYYCLQYDELYTFGGGTKLEIK
notes: Murine hybridoma antibody; also called murine-derived antibody 48A11
B3: the “IC50 (ng/mL), inhibition of CD73 enzyme activity on H1975 cells (AMP/ATP, Cell Titer-Glo)” value in experiment [1] was 17 ng/mL. In experiment [2], a half-maximal response (EC50) required 0.0197 µg/mL.

B4: 48A11-ch (antibody, human IgG4 S228P, kappa, V domains shown)
VH: QVQLQQPGAELVKPGASVKLSCKASGYTFTSYWMHWVKQRPGQGLEWIGEINPSIGRTNYNEKFKSKATLTVDKSSSTAFMQLSSLTSEDSAVYYCARRVYGTMDYWGQGTSVTVSS
VL: DIKMTQSPSSMYASLGERVTITCKASQDINSYLSWFQQKPGKSPKTLIYRANIWVDGVPSRFSGSGSGQDYSLTISSLEYEDMGIYYCLQYDELYTFGGGTKLEIKR
notes: Chimeric: murine variable regions spliced with human IgG4 (S228P) and human kappa constant regions; also called chimeric antibody 48A11-ch
Take B4: the EC50 was 0.067 nM in experiment [2] and 0.058 nM in experiment [3].

B5: 48A11-HuV23 (antibody, human IgG4, V domains shown)
VH: QVQLVQSGAEVKKPGASVKVSCKASGYTFTSYWMHWVRQAPGQGLEWIGEINPSIGRTNYNEKFKSRATLTVDKSTSTAYMELSSLRSEDTAVYYCARRVYGTMDYWGQGTLVTVSS
VL: DIQMTQSPSSLSASVGDRVTITCKASQDINSYLSWFQQKPGKSPKLLIYRANIWVDGVPSRFSGSGSGQDYTFTISSLQPEDIATYYCLQYDELYTFGQGTKVEIK
notes: Humanized
In turn, B5 came in with an EC50 in experiment [3] of 0.081 nM.

B6: 48A11-HuV22 (antibody, human IgG4, V domains shown)
VH: QVQLVQSGAEVKKPGASVKVSCKASGYTFTSYWMHWVRQAPGQGLEWIGEINPSIGRTNYNEKFKSRATLTVDKSTSTAYMELSSLRSEDTAVYYCARRVYGTMDYWGQGTLVTVSS
VL: DIQMTQSPSSLSASVGDRVTITCKASQDINSYLSWFQQKPGKSPKTLIYRANIWVDGVPSRFSGSGSGQDYTFTISSLQPEDIATYYCLQYDELYTFGQGTKVEIK
notes: Humanized
On to B6, for which the “IC50 (nM), inhibition of enzyme activity of soluble CD73-His (AMP/ATP, Cell Titer-Glo)” value in experiment [4] worked out at 9.02 nM. In addition, the EC50 in experiment [3] is 0.093 nM.

B7: 56B10-HuV21 (antibody, human IgG4, V domains shown)
VH: QVQLVQSGAEVKKPGASVKVSCKTSGYTFTRYYIYWVRQAPGQGLEWIGWIYPGNFNTKYNEKFKGRATLTADTSASTAYMELSSLRSEDTAVYYCARDVYDYAGFAYWGQGTLVTVSS
VL: DIQLTQSPSFLSASVGDRVTITCKASQGVATAVAWYQQKPGQSPKLLIYWASTRHTGVPDRFSGSGSGTEFTLTISSLQPEDFATYYCQQYSSYPWTFGQGTKVEIK
notes: Humanized
In experiment [3], B7 had an EC50 of 0.11 nM.

B8: 56B10-HuV32 (antibody, human IgG4, V domains shown)
VH: QVQLQQSGAEVKKPGASVKVSCKASGYTFTRYYIYWVRQRPGQGLEWIGWIYPGNFNTKYNEKFKGRATLTADTSASTAYMELSSLTSEDTAVYYCARDVYDYAGFAYWGQGTLVTVSS
VL: DIQLTQSPSFLSASVGDRVTITCKASQGVATAVAWYQQKPGKAPKLLIYWASTRHTGVPSRFSGSGSGTEFTLTISSLQPEDFATYYCQQYSSYPWTFGQGTKVEIK
notes: Humanized
B8 came in with an EC50 in experiment [3] of 0.105 nM.

B9: 56B10-HuV23 (antibody, human IgG4, V domains shown)
VH: QVQLVQSGAEVKKPGASVKVSCKTSGYTFTRYYIYWVRQAPGQGLEWIGWIYPGNFNTKYNEKFKGRATLTADTSASTAYMELSSLRSEDTAVYYCARDVYDYAGFAYWGQGTLVTVSS
VL: DIQMTQSPSFLSASVGDRVTITCKASQGVATAVAWYQQKPGKSPKLLIYWASTRHTGVPSRFSGSGSGTEFTLTISSLQPEDFATYFCQQYSSYPWTFGQGTKVEIK
notes: Humanized
B9 came in with an EC50 in experiment [3] of 0.107 nM.

B10: 56B10-HuV33 (antibody, human IgG4, V domains shown)
VH: QVQLQQSGAEVKKPGASVKVSCKASGYTFTRYYIYWVRQRPGQGLEWIGWIYPGNFNTKYNEKFKGRATLTADTSASTAYMELSSLTSEDTAVYYCARDVYDYAGFAYWGQGTLVTVSS
VL: DIQMTQSPSFLSASVGDRVTITCKASQGVATAVAWYQQKPGKSPKLLIYWASTRHTGVPSRFSGSGSGTEFTLTISSLQPEDFATYFCQQYSSYPWTFGQGTKVEIK
notes: Humanized
On to B10, for which the “IC50 (nM), inhibition of enzyme activity of soluble CD73-His (AMP/ATP, Cell Titer-Glo)” value in experiment [4] was 4.13 nM. In experiment [3], this molecule displayed an EC50 of 0.112 nM.
